Details: phosphorylation at S183

For p27/Kip1: S183A, the other was “no change”.
